Reference: patent publication US20040253685A1
One block for each substance: values may come before it.

How the values were obtained:
[1] = molecular target: T1, wild type bovine endothelial nitric oxide synthase (eNOS) (bovine) (UniProt P29473); test: cell-based or functional assay
T1 sequence (looked up): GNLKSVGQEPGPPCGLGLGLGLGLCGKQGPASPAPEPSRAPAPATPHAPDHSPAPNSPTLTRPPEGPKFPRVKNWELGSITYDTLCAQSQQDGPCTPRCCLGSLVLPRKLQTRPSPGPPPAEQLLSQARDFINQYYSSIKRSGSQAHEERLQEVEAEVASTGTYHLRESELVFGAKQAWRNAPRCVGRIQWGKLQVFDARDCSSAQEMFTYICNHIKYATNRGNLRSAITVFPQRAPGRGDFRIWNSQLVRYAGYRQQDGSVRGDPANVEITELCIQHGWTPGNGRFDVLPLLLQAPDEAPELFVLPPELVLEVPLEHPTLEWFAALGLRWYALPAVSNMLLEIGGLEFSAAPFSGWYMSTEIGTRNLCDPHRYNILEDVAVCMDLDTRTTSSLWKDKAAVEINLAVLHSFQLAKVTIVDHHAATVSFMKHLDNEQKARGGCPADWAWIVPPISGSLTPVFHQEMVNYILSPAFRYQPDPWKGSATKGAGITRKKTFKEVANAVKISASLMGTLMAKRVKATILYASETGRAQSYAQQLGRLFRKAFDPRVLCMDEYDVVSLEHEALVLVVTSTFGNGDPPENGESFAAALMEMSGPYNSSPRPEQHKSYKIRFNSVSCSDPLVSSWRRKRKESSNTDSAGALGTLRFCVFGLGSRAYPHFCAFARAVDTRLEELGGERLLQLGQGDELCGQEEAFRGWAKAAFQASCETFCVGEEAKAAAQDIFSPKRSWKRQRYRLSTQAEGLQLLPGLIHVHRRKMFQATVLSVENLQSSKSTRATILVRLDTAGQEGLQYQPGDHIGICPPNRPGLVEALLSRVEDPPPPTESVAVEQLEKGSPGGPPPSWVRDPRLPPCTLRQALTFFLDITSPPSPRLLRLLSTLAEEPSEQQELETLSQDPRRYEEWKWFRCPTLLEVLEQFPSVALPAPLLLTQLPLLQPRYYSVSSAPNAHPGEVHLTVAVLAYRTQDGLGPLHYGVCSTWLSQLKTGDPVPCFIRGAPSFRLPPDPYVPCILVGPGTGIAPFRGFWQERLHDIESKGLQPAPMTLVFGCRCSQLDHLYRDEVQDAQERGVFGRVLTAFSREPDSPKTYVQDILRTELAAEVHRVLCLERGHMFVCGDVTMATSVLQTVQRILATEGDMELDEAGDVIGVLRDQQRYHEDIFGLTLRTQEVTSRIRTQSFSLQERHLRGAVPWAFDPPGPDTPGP

[2] = molecular target: S1179D eNOS (bovine) (bovine) (UniProt P29473); test: cell-based or functional assay

cGMP accumulation (assayed in COS cells) (pmol cGMP/mg protein) [1]: 11.6
Substance: constitutively active form of Akt (myr-Akt) (enzyme)

EC50 for CaM, NADPH-mediated cytochrome c reduction as a function of CaM concentration [1]: 13 nM
EC50 for CaM, NOS activity (L-Citrulline) as a function of CaM concentration [1]: 8 nM
EC50 for CaM, NADPH-mediated cytochrome c reduction as a function of CaM concentration [2]: 21 nM
EC50 for CaM, NOS activity (L-Citrulline) as a function of CaM concentration [2]: 7 nM
Substance: calmodulin

cGMP accumulation (assayed in COS cells) [1]: 5.8 pmol cGMP
Substance: HA-tagged kinase inactive Akt (K179M) (enzyme)

phosphorylation of eNOS in 32P-orthophosphate labeled COS cells [1]: 2 fold
Substance: HA-tagged wild-type Akt (protein kinase B) (enzyme)
